Measured values reported in patent publication US20040106198.

Key:
N-Suc-GPK-pNA = target: T1, N-Suc-GPK-pNA
T1 chain: GPK

[1] = target: human growth hormone, P01241
[2] = target: oxidized bovine insulin B chain, P01317
N-Suc-AAV-pNA = target: T2, N-Suc-AAV-pNA
T2 chain: AAV

N-Suc-AAPM-pNA = target: T3, N-Suc-AAPM-pNA
T3 chain: AAPM

N-Suc-AAPV-pNA = target: T4, N-Suc-AAPV-pNA
T4 chain: AAPV

N-Suc-GGL-pNA = target: T5, N-Suc-GGL-pNA
T5 chain: GGL

N-Suc-GFG-pNA = target: T6, N-Suc-GFG-pNA
T6 chain: GFG

N-Suc-IEGR-pNA = target: T7, N-Suc-IEGR-pNA
T7 chain: IEGR

N-Suc-AAPF-pNA = target: T8, N-Suc-AAPF-pNA
T8 chain: AAPF

N-Suc-VGR-pNA = target: T9, N-Suc-VGR-pNA
T9 chain: VGR

N-Suc-AAA-pNA = target: T10, N-Suc-AAA-pNA
T10 chain: AAA

N-Suc-GGG-pNA = target: T11, N-Suc-GGG-pNA
T11 chain: GGG

N-Suc-AAPL-pNA = target: T12, N-Suc-AAPL-pNA
T12 chain: AAPL

N-Suc-GGF-pNA = target: T13, N-Suc-GGF-pNA
T13 chain: GGF

N-Suc-PFR-pNA = target: T14, N-Suc-PFR-pNA
T14 chain: PFR

N-Suc-YVAD-pNA = target: T15, N-Suc-YVAD-pNA
T15 chain: YVAD

N-Suc-AAPD-pNA = target: T16, N-Suc-AAPD-pNA
T16 chain: AAPD

N-Suc-AAVA-pNA = target: T17, N-Suc-AAVA-pNA
T17 chain: AAVA

N-Suc-AAPI-pNA = target: T18, N-Suc-AAPI-pNA
T18 chain: AAPI

N-Suc-YLV-pNA = target: T19, N-Suc-YLV-pNA
T19 chain: YLV

N-Suc-AAPA-pNA = target: T20, N-Suc-AAPA-pNA
T20 chain: AAPA

N-Suc-FVR-pNA = target: T21, N-Suc-FVR-pNA
T21 chain: FVR

oxidized bovine insulin B chain, P01317, sequence (P01317 25-54): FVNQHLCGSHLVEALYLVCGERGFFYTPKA
human growth hormone, P01241, sequence (P01241 27-217): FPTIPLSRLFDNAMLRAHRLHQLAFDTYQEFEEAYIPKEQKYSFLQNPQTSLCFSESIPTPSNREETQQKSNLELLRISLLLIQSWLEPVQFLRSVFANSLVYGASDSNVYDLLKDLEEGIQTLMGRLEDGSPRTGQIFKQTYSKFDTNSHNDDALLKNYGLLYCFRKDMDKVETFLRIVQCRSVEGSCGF

B1: Nicotianalisin (Nicotiana benthamiana subtilisin-like serine protease) (protein)
chain: ANCITMYFLLLTILLLTLNPLTMAESETYIIHMDLSAMPKAFSSHQNWYLTTLASVSGSSSLGTESNRNSFSSSKLVYAYTNAIHGFSATLSPSELQVIKNSPGYLSSTKDMTVKIDTTHTSQFLGLNSDSGAWPKSDYGKDVIVGLVDTGIWPESKSYNDNGMTEVPSRWKGECESGTQFNSSLCNKKLIGARYFNKGLIANNPNITISMNSARDTDGHGTHTSSTAAGSHVESASYFGYARGSATGMAPKAHVAMYKALWEEGTMLSDILAAIDQAIEDGVDIISLSLGIDDLALYEDPVAIATFAAMEKDIFVSTSAGNEGPDDQALHNGTPWVLTVAAGTVDREFIGTLSLGNGVSVTGLSLYPGNSSSSESSIVFLKTCLEEKELEKNAHKFAVCYDTNGSVSDQLYNVKNTKVAGGIFITNYTDLEFYLQSEFPAVFLNFEDGDKVLEYIKNSHSPKARLEFQVTHLGAKPAPKVASYSSRGPSESCPFILKPDLMAPGALILASWPQKSPATQIRSGELFSNFNIISGTSMSCPHAAGVAALLKGAHPKWSPAAIRSAMMTTADTMDNMQMPIRDIGRNNNAASPLAMGAGRINPNKALDPGLIYDITSQDYINLLCALDFTSQQIKAITRSSAYSCSNSSLDLNYPSFIGYFNYNSSESDPKRIQEFQRTVTNVGEGMSVYTAKLTSMGDYKASVAPDKLVFKEKYEKQSYKLRIEGPLLVDIILFMVL
In the case of B1, the Relative Activity (release of p-NA at 410 nm, 0.3 mM substrate) (% of the activity with N-Suc-AAPL-pNA) (N-Suc-GPK-pNA) is reported as 2, the “in vitro cleavage of purified hGH at a 1:50 protease:substrate ratio, 10-30 min at 30 C, SDS-PAGE and Western blot (FIGS. 7 and 8)” value [1] is reported as “Two prominent immunoreactive degradation products were detected” and the “hydrolysis of oxidized insulin B chain, 2 to 16 hr at 37 C, MALDI-TOF of the cleavage products (FIG. 6)” value [2] is reported as “hydrolysis occurred after leucine, cysteine, proline, and lysine amino acid residues”. For the same protein, the Relative Activity (release of p-NA at 410 nm, 0.3 mM substrate) (% of the activity with N-Suc-AAPL-pNA) (N-Suc-AAV-pNA) was 5, the Relative Activity (release of p-NA at 410 nm, 0.3 mM substrate) (% of the activity with N-Suc-AAPL-pNA) (N-Suc-AAPM-pNA) was 100 and the Relative Activity (release of p-NA at 410 nm, 0.3 mM substrate) (% of the activity with N-Suc-AAPL-pNA) (N-Suc-AAPV-pNA) was 8. It also gave a Relative Activity (release of p-NA at 410 nm, 0.3 mM substrate) (% of the activity with N-Suc-AAPL-pNA) (N-Suc-GGL-pNA) of 1, a Relative Activity (release of p-NA at 410 nm, 0.3 mM substrate) (% of the activity with N-Suc-AAPL-pNA) (N-Suc-GFG-pNA) of 1 and a Relative Activity (release of p-NA at 410 nm, 0.3 mM substrate) (% of the activity with N-Suc-AAPL-pNA) (N-Suc-IEGR-pNA) of 18. The Relative Activity (release of p-NA at 410 nm, 0.3 mM substrate) (% of the activity with N-Suc-AAPL-pNA) (N-Suc-AAPF-pNA) was 67, the Relative Activity (release of p-NA at 410 nm, 0.3 mM substrate) (% of the activity with N-Suc-AAPL-pNA) (N-Suc-VGR-pNA) was 3 and the Relative Activity (release of p-NA at 410 nm, 0.3 mM substrate) (% of the activity with N-Suc-AAPL-pNA) (N-Suc-AAA-pNA) was 2. It also gave a Relative Activity (release of p-NA at 410 nm, 0.3 mM substrate) (% of the activity with N-Suc-AAPL-pNA) (N-Suc-GGG-pNA) of 1, a Relative Activity (release of p-NA at 410 nm, 0.3 mM substrate) (% of the activity with N-Suc-AAPL-pNA) (N-Suc-AAPL-pNA) of 100 and a Relative Activity (release of p-NA at 410 nm, 0.3 mM substrate) (% of the activity with N-Suc-AAPL-pNA) (N-Suc-GGF-pNA) of 3. It also gave a Relative Activity (release of p-NA at 410 nm, 0.3 mM substrate) (% of the activity with N-Suc-AAPL-pNA) (N-Suc-PFR-pNA) of 1, a Relative Activity (release of p-NA at 410 nm, 0.3 mM substrate) (% of the activity with N-Suc-AAPL-pNA) (N-Suc-YVAD-pNA) of 70 and a Relative Activity (release of p-NA at 410 nm, 0.3 mM substrate) (% of the activity with N-Suc-AAPL-pNA) (N-Suc-AAPD-pNA) of 16. It also gave a Relative Activity (release of p-NA at 410 nm, 0.3 mM substrate) (% of the activity with N-Suc-AAPL-pNA) (N-Suc-AAVA-pNA) of 20, a Relative Activity (release of p-NA at 410 nm, 0.3 mM substrate) (% of the activity with N-Suc-AAPL-pNA) (N-Suc-AAPI-pNA) of 8 and a Relative Activity (release of p-NA at 410 nm, 0.3 mM substrate) (% of the activity with N-Suc-AAPL-pNA) (N-Suc-YLV-pNA) of 0. It also gave a Relative Activity (release of p-NA at 410 nm, 0.3 mM substrate) (% of the activity with N-Suc-AAPL-pNA) (N-Suc-AAPA-pNA) of 24 and a Relative Activity (release of p-NA at 410 nm, 0.3 mM substrate) (% of the activity with N-Suc-AAPL-pNA) (N-Suc-FVR-pNA) of 1.
